Patent US20140161804A1 (AbbVie / Abbott, published 2014)
Positions count from the first letter of the chain named.

B1: h10F7-M11-hMAk199-4.4 DVD-Ig wt (bispecific antibody, human IgG1, kappa)
heavy: not shown
light: DIQMTQSPSSLSASVGDRVTITCRASSGIISYIDWFQQKPGKAPKRLIYATFDLASGVPSRFSGSGSGTDYTLTISSLQPEDFATYYCRQVGSYPETFGQGTKLEIKRTVAAPDIQMTQSPSSLSASVGDRVTITCRASQDIENYLNWYQQKPGKAPKLLIYYTSRLQSGVPSRFSGSGSGTDFTLTISSLQPEDFATYFCQQGNTQPPTFGQGTKLEIKRTVAAPSVFIFPPSDEQLKSGTASVVCLLNNFYPREAKVQWKVDNALQSGNSQESVTEQDSKDSTYSLSSTLTLSKADYEKHKVYACEVTHQGLSSPVTKSFNRGEC
notes: DVD-Ig, IL-17 outer / TNF inner domain; wild-type IgG1, kappa; short linkers
B2: hMAK199-6-h10F7-M11.8 DVD-Ig (bispecific antibody, human IgG1, kappa, L234A L235A)
heavy: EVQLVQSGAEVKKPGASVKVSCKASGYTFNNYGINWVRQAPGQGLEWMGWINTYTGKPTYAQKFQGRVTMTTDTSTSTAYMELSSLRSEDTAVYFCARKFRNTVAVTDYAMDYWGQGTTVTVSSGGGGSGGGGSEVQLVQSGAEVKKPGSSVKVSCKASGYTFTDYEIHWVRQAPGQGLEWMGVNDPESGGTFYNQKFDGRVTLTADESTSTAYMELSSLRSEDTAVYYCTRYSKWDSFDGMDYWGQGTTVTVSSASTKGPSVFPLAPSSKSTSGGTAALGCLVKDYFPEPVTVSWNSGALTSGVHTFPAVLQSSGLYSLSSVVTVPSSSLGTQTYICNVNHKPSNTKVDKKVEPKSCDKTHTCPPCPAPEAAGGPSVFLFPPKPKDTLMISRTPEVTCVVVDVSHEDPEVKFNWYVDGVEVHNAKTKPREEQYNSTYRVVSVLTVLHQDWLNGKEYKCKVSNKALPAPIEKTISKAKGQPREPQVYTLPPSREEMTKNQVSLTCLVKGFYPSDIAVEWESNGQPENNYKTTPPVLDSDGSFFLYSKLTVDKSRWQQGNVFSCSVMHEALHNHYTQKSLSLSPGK
light: DIQMTQSPSSLSASVGDRVTITCRASQDIYDVLNWYQQKPGKAPKLLIYYASRLQSGVPSRFSGSGSGTDFTLTISSLQPEDFATYYCQQGITLPPTFGQGTKLEIKRGGSGGGGSGDIQMTQSPSSLSASVGDRVTITCRASSGIISYIDWFQQKPGKAPKRLIYATFDLASGVPSRFSGSGSGTDYTLTISSLQPEDFATYYCRQVGSYPETFGQGTKLEIKRTVAAPSVFIFPPSDEQLKSGTASVVCLLNNFYPREAKVQWKVDNALQSGNSQESVTEQDSKDSTYSLSSTLTLSKADYEKHKVYACEVTHQGLSSPVTKSFNRGEC
notes: DVD-Ig; IgG1 234,235 mut, kappa; GS10 linkers; also called HMAK199-6-GS10-H10F7-M11 DVD
B3: hMAK199-4-h10F7-M11.4 DVD-Ig wt (bispecific antibody, human IgG1, kappa)
heavy: not shown
light: DIQMTQSPSSLSASVGDRVTITCRASQDIENYLNWYQQKPGKAPKLLIYYTSRLQSGVPSRFSGSGSGTDFTLTISSLQPEDFATYFCQQGNTQPPTFGQGTKLEIKRTVAAPDIQMTQSPSSLSASVGDRVTITCRASSGIISYIDWFQQKPGKAPKRLIYATFDLASGVPSRFSGSGSGTDYTLTISSLQPEDFATYYCRQVGSYPETFGQGTKLEIKRTVAAPSVFIFPPSDEQLKSGTASVVCLLNNFYPREAKVQWKVDNALQSGNSQESVTEQDSKDSTYSLSSTLTLSKADYEKHKVYACEVTHQGLSSPVTKSFNRGEC
notes: DVD-Ig; wild-type IgG1 (CG1 Z NONA), kappa; short (SS) linkers; also called HMAK199-4-SS-H10F7-M11 DVD
B4: h10F7-M11-hMAK199-4.8 DVD-Ig wt (bispecific antibody, human IgG1, kappa)
heavy: not shown
light: DIQMTQSPSSLSASVGDRVTITCRASSGIISYIDWFQQKPGKAPKRLIYATFDLASGVPSRFSGSGSGTDYTLTISSLQPEDFATYYCRQVGSYPETFGQGTKLEIKRGGSGGGGSGDIQMTQSPSSLSASVGDRVTITCRASQDIENYLNWYQQKPGKAPKLLIYYTSRLQSGVPSRFSGSGSGTDFTLTISSLQPEDFATYFCQQGNTQPPTFGQGTKLEIKRTVAAPSVFIFPPSDEQLKSGTASVVCLLNNFYPREAKVQWKVDNALQSGNSQESVTEQDSKDSTYSLSSTLTLSKADYEKHKVYACEVTHQGLSSPVTKSFNRGEC
notes: DVD-Ig, IL-17 outer / TNF inner domain; wild-type IgG1, kappa; GS10 linkers
B5: hMAK195-21-h10F7-A11.8 DVD-Ig (bispecific antibody, human IgG1, kappa, L234A L235A)
heavy: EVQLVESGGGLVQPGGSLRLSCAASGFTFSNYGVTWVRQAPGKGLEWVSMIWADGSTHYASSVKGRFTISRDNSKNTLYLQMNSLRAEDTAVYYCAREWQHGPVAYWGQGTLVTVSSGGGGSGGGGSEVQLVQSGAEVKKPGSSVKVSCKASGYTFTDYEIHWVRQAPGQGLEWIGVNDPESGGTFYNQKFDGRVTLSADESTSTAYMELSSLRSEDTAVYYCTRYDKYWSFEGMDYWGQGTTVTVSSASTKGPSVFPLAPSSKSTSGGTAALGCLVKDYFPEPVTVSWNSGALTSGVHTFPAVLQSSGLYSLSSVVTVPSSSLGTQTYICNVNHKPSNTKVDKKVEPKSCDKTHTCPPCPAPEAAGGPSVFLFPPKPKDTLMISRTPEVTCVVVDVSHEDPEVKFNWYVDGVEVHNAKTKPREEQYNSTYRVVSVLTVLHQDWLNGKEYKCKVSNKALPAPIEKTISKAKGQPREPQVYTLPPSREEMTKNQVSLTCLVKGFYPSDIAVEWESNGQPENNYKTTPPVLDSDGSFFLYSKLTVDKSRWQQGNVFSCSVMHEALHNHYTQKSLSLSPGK
light: DIQMTQSPSSLSASVGDRVTITCRASQLVSSAVAWYQQKPGKAPKLLIYWASARHTGVPSRFSGSGSGTDFTLTISSLQPEDFATYYCQQHYKTPFTFGQGTKLEIKRGGSGGGGSGDIQMTQSPSSLSASVGDRVTITCRASSGIISYIDWFQQKPGKAPKRLIYATFDLASGVPSRFSGSGSGTDYTLTISSLQPEDFATYYCRQVGSYPETFGQGTKLEIKRTVAAPSVFIFPPSDEQLKSGTASVVCLLNNFYPREAKVQWKVDNALQSGNSQESVTEQDSKDSTYSLSSTLTLSKADYEKHKVYACEVTHQGLSSPVTKSFNRGEC
notes: DVD-Ig; IgG1 234,235 mut, kappa; GS10 linkers; light chain shared with the M11 DVD-Ig; also called hMAK195-21-GS10-A11 DVD
B6: hMAK195-21-h10F7-A16.8 DVD-Ig (bispecific antibody, human IgG1, kappa, L234A L235A)
heavy: not shown
light: B5 light with R141S, S144Q, I147R, A160S, S210N, E213G
notes: DVD-Ig; IgG1 234,235 mut, kappa; GS10 linkers; light chain shared with the A6 DVD-Ig; also called ShMAK195-21-h10F7-A16.8 DVD-Ig; hMAK195-21-GS10-A16 DVD
B7: hMAK195-24-h10F7-A11.8 DVD-Ig (bispecific antibody, human IgG1, kappa, L234A L235A)
heavy: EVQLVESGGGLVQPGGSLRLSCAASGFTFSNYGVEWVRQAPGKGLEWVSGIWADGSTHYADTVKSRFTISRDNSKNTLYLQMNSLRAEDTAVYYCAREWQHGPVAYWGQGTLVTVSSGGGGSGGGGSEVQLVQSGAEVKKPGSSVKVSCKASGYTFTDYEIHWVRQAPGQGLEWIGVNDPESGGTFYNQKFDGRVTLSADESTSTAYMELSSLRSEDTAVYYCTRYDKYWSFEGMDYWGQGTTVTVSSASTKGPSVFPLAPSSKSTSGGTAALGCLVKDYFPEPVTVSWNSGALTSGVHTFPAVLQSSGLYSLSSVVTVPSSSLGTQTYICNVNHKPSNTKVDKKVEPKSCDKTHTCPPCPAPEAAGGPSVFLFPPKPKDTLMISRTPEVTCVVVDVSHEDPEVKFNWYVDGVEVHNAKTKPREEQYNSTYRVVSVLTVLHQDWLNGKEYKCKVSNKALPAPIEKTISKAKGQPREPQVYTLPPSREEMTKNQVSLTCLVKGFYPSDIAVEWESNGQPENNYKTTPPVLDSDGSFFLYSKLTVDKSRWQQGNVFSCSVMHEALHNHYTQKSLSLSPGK
light: B5 light with R24K, A53T, R54L, K93R
notes: DVD-Ig; IgG1 234,235 mut, kappa; GS10 linkers; also called hMAK195-24-GS10-A11 DVD
B8: hMAK195-21-h10F7-M10.8 DVD-Ig (bispecific antibody, human IgG1, kappa, L234A L235A)
heavy: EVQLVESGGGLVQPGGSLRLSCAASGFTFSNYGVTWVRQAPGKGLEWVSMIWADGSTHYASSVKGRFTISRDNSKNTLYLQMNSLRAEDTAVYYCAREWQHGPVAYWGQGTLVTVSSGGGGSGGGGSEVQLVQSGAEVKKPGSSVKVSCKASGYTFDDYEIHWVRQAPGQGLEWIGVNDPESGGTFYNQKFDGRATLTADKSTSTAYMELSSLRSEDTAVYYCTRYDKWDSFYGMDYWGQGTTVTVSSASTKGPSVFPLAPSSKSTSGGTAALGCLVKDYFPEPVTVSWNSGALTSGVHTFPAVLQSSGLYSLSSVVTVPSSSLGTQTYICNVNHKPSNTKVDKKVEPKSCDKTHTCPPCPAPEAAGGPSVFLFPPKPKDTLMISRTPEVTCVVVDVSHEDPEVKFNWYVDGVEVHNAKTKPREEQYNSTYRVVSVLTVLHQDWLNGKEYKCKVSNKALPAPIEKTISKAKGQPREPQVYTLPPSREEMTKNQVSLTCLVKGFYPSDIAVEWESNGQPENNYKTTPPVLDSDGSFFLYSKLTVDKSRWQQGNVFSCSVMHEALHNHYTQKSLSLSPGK
light: B5 light with R141S, I146S, D170E, Y188F, R206H, V208L, E213D
notes: DVD-Ig; IgG1 234,235 mut, kappa; GS10 linkers; also called hMAK195-21-GS10-M10 DVD
B9: hMAK195-24-h10F7-A16.8 DVD-Ig (bispecific antibody, human IgG1, kappa, L234A L235A)
heavy: not shown
light: B5 light with R24K, A53T, R54L, K93R, R141S, S144Q, I147R, A160S, S210N, E213G
notes: DVD-Ig; IgG1 234,235 mut, kappa; GS10 linkers; light chain shared with the A6 DVD-Ig; also called hMAK195-24-GS10-A16 DVD
B10: hMAK195-21-h10F7-A6.8 DVD-Ig (bispecific antibody, human IgG1, kappa, L234A L235A)
heavy: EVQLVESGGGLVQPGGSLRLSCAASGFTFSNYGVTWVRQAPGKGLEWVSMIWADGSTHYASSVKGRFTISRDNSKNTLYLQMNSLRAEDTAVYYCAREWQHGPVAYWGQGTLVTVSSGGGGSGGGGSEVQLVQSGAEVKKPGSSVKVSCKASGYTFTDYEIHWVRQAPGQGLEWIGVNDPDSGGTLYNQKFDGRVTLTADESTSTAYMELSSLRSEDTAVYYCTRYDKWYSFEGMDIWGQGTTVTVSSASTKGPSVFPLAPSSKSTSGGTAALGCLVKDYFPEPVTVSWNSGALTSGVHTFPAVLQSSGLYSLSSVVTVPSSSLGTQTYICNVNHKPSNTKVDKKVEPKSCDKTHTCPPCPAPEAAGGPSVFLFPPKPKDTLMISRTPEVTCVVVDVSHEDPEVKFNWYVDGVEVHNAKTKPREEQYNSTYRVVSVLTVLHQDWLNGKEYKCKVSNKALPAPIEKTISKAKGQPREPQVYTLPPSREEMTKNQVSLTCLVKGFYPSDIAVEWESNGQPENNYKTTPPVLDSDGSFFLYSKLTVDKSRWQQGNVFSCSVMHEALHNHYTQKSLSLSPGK
light: B5 light with R141S, S144Q, I147R, A160S, S210N, E213G
notes: DVD-Ig; IgG1 234,235 mut, kappa; GS10 linkers; also called hMAK195-21-GS10-A6 DVD
B11: hMAK195-24-h10F7-A6.8 DVD-Ig (bispecific antibody, human IgG1, kappa, L234A L235A)
heavy: not shown
light: B5 light with R24K, A53T, R54L, K93R, R141S, S144Q, I147R, A160S, S210N, E213G
notes: DVD-Ig; IgG1 234,235 mut, kappa; GS10 linkers; also called hMAK195-24-GS10-A6 DVD
B12: hMAK195-21-h10F7-B13.8 DVD-Ig (bispecific antibody, human IgG1, kappa, L234A L235A)
heavy: not shown
light: B5 light
notes: DVD-Ig; IgG1 234,235 mut, kappa; GS10 linkers; light chain shared with the M11 DVD-Ig; also called hMAK195-21-GS10-B13 DVD
B13: hMAK195-21-h10F7-B20.8 DVD-Ig (bispecific antibody, human IgG1, kappa, L234A L235A)
heavy: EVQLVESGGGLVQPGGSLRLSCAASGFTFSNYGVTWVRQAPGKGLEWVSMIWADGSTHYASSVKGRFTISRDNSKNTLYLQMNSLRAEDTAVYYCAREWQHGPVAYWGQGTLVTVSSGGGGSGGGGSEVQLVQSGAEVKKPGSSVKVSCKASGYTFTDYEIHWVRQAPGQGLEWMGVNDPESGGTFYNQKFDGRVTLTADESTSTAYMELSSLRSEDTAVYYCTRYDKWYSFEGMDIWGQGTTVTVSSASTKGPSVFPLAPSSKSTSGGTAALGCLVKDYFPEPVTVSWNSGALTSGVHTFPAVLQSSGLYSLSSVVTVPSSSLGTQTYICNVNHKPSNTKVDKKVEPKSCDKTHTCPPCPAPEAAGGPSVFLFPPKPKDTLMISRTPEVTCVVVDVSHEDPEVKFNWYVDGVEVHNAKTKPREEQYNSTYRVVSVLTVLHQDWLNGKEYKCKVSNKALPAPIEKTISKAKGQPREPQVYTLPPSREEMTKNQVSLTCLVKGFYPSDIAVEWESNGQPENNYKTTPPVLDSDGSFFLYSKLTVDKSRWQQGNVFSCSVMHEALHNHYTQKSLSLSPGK
light: B5 light
notes: DVD-Ig; IgG1 234,235 mut, kappa; GS10 linkers; light chain shared with the M11 DVD-Ig; also called hMAK195-21-GS10-B20 DVD
B14: hMAK195-24-h10F7-M10.8 DVD-Ig (bispecific antibody, human IgG1, kappa, L234A L235A)
heavy: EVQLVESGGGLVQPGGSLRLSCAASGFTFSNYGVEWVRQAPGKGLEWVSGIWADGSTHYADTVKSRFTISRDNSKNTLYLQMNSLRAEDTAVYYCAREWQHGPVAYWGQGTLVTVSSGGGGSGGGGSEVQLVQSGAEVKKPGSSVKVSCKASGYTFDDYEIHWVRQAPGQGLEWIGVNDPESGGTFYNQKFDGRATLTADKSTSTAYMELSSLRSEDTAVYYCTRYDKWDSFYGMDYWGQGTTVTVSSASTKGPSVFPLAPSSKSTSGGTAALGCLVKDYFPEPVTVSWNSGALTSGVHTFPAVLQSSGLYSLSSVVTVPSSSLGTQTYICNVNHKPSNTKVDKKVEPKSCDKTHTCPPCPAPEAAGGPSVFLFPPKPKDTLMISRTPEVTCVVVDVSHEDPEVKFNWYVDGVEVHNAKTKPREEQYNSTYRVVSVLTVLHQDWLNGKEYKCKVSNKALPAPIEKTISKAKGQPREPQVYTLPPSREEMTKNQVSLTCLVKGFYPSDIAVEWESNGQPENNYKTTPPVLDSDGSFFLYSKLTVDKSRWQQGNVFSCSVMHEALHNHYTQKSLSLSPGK
light: DIQMTQSPSSLSASVGDRVTITCKASQLVSSAVAWYQQKPGKAPKLLIYWASTLHTGVPSRFSGSGSGTDFTLTISSLQPEDFATYYCQQHYRTPFTFGQGTKLEIKRGGSGGGGSGDIQMTQSPSSLSASVGDRVTITCSASSGSISYIDWFQQKPGKAPKRLIYATFELASGVPSRFSGSGSGTDFTLTISSLQPEDFATYYCHQLGSYPDTFGQGTKLEIKRTVAAPSVFIFPPSDEQLKSGTASVVCLLNNFYPREAKVQWKVDNALQSGNSQESVTEQDSKDSTYSLSSTLTLSKADYEKHKVYACEVTHQGLSSPVTKSFNRGEC
notes: DVD-Ig; IgG1 234,235 mut, kappa; GS10 linkers; also called hMAK195-24-GS10-M10 DVD
B15: hMAK195-24-h10F7-M11.4 DVD-Ig wt (bispecific antibody, human IgG1, kappa)
heavy: not shown
light: DIQMTQSPSSLSASVGDRVTITCKASQLVSSAVAWYQQKPGKAPKLLIYWASTLHTGVPSRFSGSGSGTDFTLTISSLQPEDFATYYCQQHYRTPFTFGQGTKLEIKRTVAAPDIQMTQSPSSLSASVGDRVTITCRASSGIISYIDWFQQKPGKAPKRLIYATFDLASGVPSRFSGSGSGTDYTLTISSLQPEDFATYYCRQVGSYPETFGQGTKLEIKRTVAAPSVFIFPPSDEQLKSGTASVVCLLNNFYPREAKVQWKVDNALQSGNSQESVTEQDSKDSTYSLSSTLTLSKADYEKHKVYACEVTHQGLSSPVTKSFNRGEC
notes: DVD-Ig; wild-type IgG1 (CG1 Z NONA), kappa; short (SS) linkers ASTKGP / TVAAP; also called HMAK195-24-SS-H10F7-M11 DVD
B16: hMAK199-10-h10F7-M10.8 DVD-Ig (bispecific antibody, human IgG1, kappa, L234A L235A)
heavy: not shown
light: DIQMTQSPSSLSASVGDRVTITCRASQDISNFLNWYQQKPGKAPKLLIYYTSRLQSGVPSRFSGSGSGTDYTLTISSLQPEDFATYFCQQGNTQPPTFGQGTKLEIKRGGSGGGGSGDIQMTQSPSSLSASVGDRVTITCSASSGSISYIDWFQQKPGKAPKRLIYATFELASGVPSRFSGSGSGTDFTLTISSLQPEDFATYYCHQLGSYPDTFGQGTKLEIKRTVAAPSVFIFPPSDEQLKSGTASVVCLLNNFYPREAKVQWKVDNALQSGNSQESVTEQDSKDSTYSLSSTLTLSKADYEKHKVYACEVTHQGLSSPVTKSFNRGEC
notes: DVD-Ig; IgG1 234,235 mut, kappa; GS10 linkers; also called HMAK199-10-GS10-H10F7-M10 DVD
B17: hMAK199-6-h10F7-M10.8 DVD-Ig (bispecific antibody, human IgG1, kappa, L234A L235A)
heavy: not shown
light: B2 light with R141S, I146S, D170E, Y188F, R206H, V208L, E213D
notes: DVD-Ig; IgG1 234,235 mut, kappa; GS10 linkers; also called HMAK199-6-GS10-H10F7-M10 DVD
B18: hMAK199-10-h10F7-M11.8 DVD-Ig (bispecific antibody, human IgG1, kappa, L234A L235A)
heavy: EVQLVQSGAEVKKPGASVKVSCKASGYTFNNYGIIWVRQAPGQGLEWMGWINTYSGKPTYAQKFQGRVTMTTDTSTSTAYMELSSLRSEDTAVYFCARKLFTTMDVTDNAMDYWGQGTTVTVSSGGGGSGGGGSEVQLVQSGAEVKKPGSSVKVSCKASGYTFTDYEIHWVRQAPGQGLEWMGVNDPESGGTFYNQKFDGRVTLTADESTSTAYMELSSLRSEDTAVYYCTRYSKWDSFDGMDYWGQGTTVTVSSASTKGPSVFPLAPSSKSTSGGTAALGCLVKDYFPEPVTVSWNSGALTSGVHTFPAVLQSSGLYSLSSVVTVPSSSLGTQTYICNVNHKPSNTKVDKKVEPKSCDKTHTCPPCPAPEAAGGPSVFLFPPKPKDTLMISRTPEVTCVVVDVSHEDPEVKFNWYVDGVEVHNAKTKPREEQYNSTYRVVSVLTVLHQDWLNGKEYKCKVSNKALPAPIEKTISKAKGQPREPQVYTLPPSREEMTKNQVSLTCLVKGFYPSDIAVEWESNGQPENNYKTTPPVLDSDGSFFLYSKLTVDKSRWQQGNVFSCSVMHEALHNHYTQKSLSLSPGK
light: B16 light with S141R, S146I, E170D, F188Y, H206R, L208V, D213E
notes: DVD-Ig; IgG1 234,235 mut, kappa; GS10 linkers; also called HMAK199-10-GS10-H10F7-M11 DVD

molecular target: T1, Human IL-17A (human, UniProt Q16552 20-155, limits assumed); test: ELISA, captured DVD-Ig, biotin-human IL-17 titrated
T1 construct: Biotinylated in the ELISAs; purified recombinant protein in SPR; also called hIL17A; hIL-17
T1 sequence (Q16552 20-155 limits assumed): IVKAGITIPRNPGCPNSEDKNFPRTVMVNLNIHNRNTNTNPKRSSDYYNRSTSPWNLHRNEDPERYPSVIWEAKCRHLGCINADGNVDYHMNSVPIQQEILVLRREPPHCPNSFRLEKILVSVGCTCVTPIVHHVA
Protocol: The following protocol is used to characterize the binding of TNF/IL-17 DVD-Ig proteins to human TNF and IL-17 by enzyme-linked immunosorbent assay (ELISA). An ELISA plate was coated with 50 μl per well of goat anti mouse IgG-Fc at 2 μg/ml, overnight at 4° C. The plate was washed 3 times with PBS/Tween. 50 μl Mab diluted to 1 μg/ml in PBS/0.1% BSA was added to appropriate wells and incubated for 1 hour at room temperature (RT). The plate was washed 3 times with PBS/Tween. 50 μl of serial diluted biotin-human TNF or IL-17 was added to appropriate wells and incubated for 1 hour at RT. The plate was washed 3 times with PBS/Tween. 50 μl of streptavidin-HRP diluted 1:10,000 in PBS/0.1% BSA was added to appropriate wells and incubated for 1 hour at RT. The plate was washed 3 times with PBS/Tween. 50 μl of TMB was added to appropriate wells and the reaction allowed to proceed for 1 minute. The reaction was stopped with 50 μl/well 2N H₂SO₄ and the absorbance read at 450 nm.

Question: With B1 as the binder, how does the EC50 read?
Answer: 0.04 nM

Question: For B2, which EC50 is on record?
Answer: 0.104 nM

Question: How did the EC50 turn out when B3 was run?
Answer: > 0.5 nM

Question: Which EC50 does the source give for B4 here?
Answer: 0.05 nM

Question: B5 was tested. Which EC50 did it give?
Answer: 0.3 nM

Question: For B6, which EC50 is on record?
Answer: 0.23 nM

Question: With B7 as the binder, how does the EC50 read?
Answer: 0.295 nM

Question: For B8, which EC50 is on record?
Answer: 0.1 nM

Question: B9 was tested. Which EC50 did it give?
Answer: 0.093 nM

Question: With B10 as the binder, how does the EC50 read?
Answer: 0.13 nM

Question: For B11, which EC50 is on record?
Answer: 0.188 nM

Question: Which EC50 does the source give for B12 here?
Answer: 0.2 nM

Question: B13 was tested. Which EC50 did it give?
Answer: 0.242 nM

Question: How did the EC50 turn out when B14 was run?
Answer: 0.1 nM

Question: With B15 as the binder, how does the EC50 read?
Answer: > 0.5 nM

Question: B16 was tested. Which EC50 did it give?
Answer: 0.079 nM

Question: For B17, which EC50 is on record?
Answer: 0.163 nM

Question: B18 was tested. Which EC50 did it give?
Answer: 0.133 nM
